# In patent publication US12295987B2, “Method of using a GIP/GLP1 co-agonist for diabetes” (Eli Lilly and Company, priority 2018, dated 2025):
# Biological target: T1, human gastric inhibitory peptide receptor (hGIPR) (Homo sapiens, UniProt P48546)
# T1 construct: expressed in transfected cells; host or cells: HEK293
# T1 sequence (P48546 22-466): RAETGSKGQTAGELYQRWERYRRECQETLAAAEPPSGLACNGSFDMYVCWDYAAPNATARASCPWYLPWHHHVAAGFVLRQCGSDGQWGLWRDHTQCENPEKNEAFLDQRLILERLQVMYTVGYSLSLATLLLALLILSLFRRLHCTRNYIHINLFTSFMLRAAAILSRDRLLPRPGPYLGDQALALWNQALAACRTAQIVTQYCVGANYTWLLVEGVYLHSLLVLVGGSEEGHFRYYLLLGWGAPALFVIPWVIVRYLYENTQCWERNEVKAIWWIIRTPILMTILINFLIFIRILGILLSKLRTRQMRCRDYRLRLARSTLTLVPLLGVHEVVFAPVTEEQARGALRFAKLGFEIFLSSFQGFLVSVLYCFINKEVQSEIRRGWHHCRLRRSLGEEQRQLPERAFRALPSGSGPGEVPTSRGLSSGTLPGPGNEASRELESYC
# Experiment: cAMP pharmacological functional assay in presence of 0.1% casein, hGIPR
# Type: cell-based
# Settings: ratio of hGIPR to hGLP1R cAMP EC50 ratios
# Procedure: Each receptor over-expressing cell line (20 μl) is treated with the test peptide in DMEM (Gibco Cat #31053) supplemented with 0.1% Casein (Sigma Cat #C4765), 250 μM IBMX, 1× GlutaMAX™ (Gibco Cat #35050), and 20 mM HEPES (HyClone Cat #SH30237.01) in a 20 μl assay volume. […] EC50 is the concentration of compound causing half-maximal simulation in a dose response curve. A relative EC50 value is derived by non-linear regression analysis using the percent maximal response vs. the concentration of peptide added, fitted to a four-parameter logistic equation.
# Intracellular cAMP levels are determined by extrapolation using a standard curve. Dose response curves of compounds are plotted as the percentage of stimulation normalized to minimum (buffer only) and maximum (maximum concentration of each control ligand) values and analyzed using a four parameter non-linear regression fit with a variable slope (Genedata Screener 13). EC50 is the concentration of compound causing half-maximal simulation in a dose response curve.
# EC50 is the concentration of compound causing half-maximal simulation in a dose response curve.
row,Substance,[hGIPR/hGLP1R] EC50 Ratio
1,"Y-Aib-EGT-αMeF(2F)-TSD-4Pal-SI-αMeL-LD-Orn-K((2-[2-(2-Amino-ethoxy)-ethoxy]-acetyl)2-(εK)-CO—(CH2)18—CO2H)AQ-Aib-AFI-(D-Glu)-αMeY-LIEGGPSSGAPPPS-NH2 (YXEGTXTSDXSIXLDXKAQXAFIXXLIEGGPSSGAPPPS; Aib, 4Pal, Orn, αMe residues, lipidated Lys, D-Glu, amide; (2)..(2) Xaa at position 2 is Aib; (6)..(6) Xaa at position 6 is alpha-methyl-Phe(2F); (10)..(10) Xaa at position 10 is 4Pal; (13)..(13) Xaa at position 13 is alpha-methyl-Leu; (16)..(16) Xaa at position 16 is Orn; MOD_RES (17)..(17) Lys at position 17 is chemically modified by conjugation of the epsilon-amino group of the Lys side chain with (2-[2-(2-amino-ethoxy)-ethoxy]-acetyl)2-(epsilon-Lys)-C) [Peptide 251]",3.74
2,"Y-Aib-EGT-αMeF(2F)-TSD-4Pal-SI-αMeL-LDEK((2-[2-(2-Amino-ethoxy)-ethoxy]-acetyl)2-(γGlu)-CO—(CH2)16—CO2H)AQ-Aib-EFI-(D-Glu)-YLIEGGPSSGAPPPS-NH2 (YXEGTXTSDXSIXLDEKAQXEFIXYLIEGGPSSGAPPPS; Aib, αMeF(2F), 4Pal, αMeL, D-Glu; lipidated K; amide; (2)..(2) Xaa at position 2 is Aib; (6)..(6) Xaa at position 6 is alpha-methyl-Phe(2F); (10)..(10) Xaa at position 10 is 4Pal; (13)..(13) Xaa at position 13 is alpha-methyl-Leu; MOD_RES (17)..(17) Lys at position 17 is chemically modified by conjugation of the epsilon-amino group of the Lys side chain with (2-[2-(2-amino-ethoxy)-ethoxy]-acetyl)2-(gamma-Glu)-CO-(CH2)16- CO2H; (20)..(20) Xaa at posit) [Peptide 204]",6.65
3,"Y-Aib-EGT-αMeF(2F)-TSD-4Pal-SI-αMeL-LDEK((2-[2-(2-Amino-ethoxy)-ethoxy]-acetyl)2-(γGlu)-CO—(CH2)18—CO2H)AQ-Aib-EFI-(D-Glu)-YLIEGGPSSGAPPPS-NH2 (YXEGTXTSDXSIXLDEKAQXEFIXYLIEGGPSSGAPPPS; Aib, αMeF(2F), 4Pal, αMeL, D-Glu; lipidated K; amide; (2)..(2) Xaa at position 2 is Aib; (6)..(6) Xaa at position 6 is alpha-methyl-Phe(2F); (10)..(10) Xaa at position 10 is 4Pal; (13)..(13) Xaa at position 13 is alpha-methyl-Leu; MOD_RES (17)..(17) Lys at position 17 is chemically modified by conjugation of the epsilon-amino group of the Lys side chain with (2-[2-(2-amino-ethoxy)-ethoxy]-acetyl)2-(gamma-Glu)-CO-(CH2)18- CO2H; (20)..(20) Xaa at posit) [Peptide 182]",5.01
4,"Y-Aib-EGT-αMeF(2F)-TSD-4Pal-SI-αMeL-LDEK((2-[2-(2-Amino-ethoxy)-ethoxy]-acetyl)2-(γGlu)-CO—(CH2)18—CO2H)AQ-Aib-EFI-Aib-YLIEGGPSSGAPPPS-NH2 (YXEGTXTSDXSIXLDEKAQXEFIXYLIEGGPSSGAPPPS; Aib, αMeF(2F), 4Pal, αMeL; lipidated K; amide; (2)..(2) Xaa at position 2 is Aib; (6)..(6) Xaa at position 6 is alpha-methyl-Phe(2F); (10)..(10) Xaa at position 10 is 4Pal; (13)..(13) Xaa at position 13 is alpha-methyl-Leu; MOD_RES (17)..(17) Lys at position 17 is chemically modified by conjugation of the epsilon-amino group of the Lys side chain with (2-[2-(2-amino-ethoxy)-ethoxy]-acetyl)2-(gamma-Glu)-CO-(CH2)18- CO2H; (20)..(20) Xaa at posit) [Peptide 189]",3.61
5,"Y-Aib-EGT-αMeF(2F)-TSD-4Pal-SI-αMeL-LDEK((2-[2-(2-Amino-ethoxy)-ethoxy]-acetyl)2-(εK)-CO—(CH2)18—CO2H)AQ-Aib-EFI-(D-Glu)-YLIEGGPSSGAPPPS-NH2 (YXEGTXTSDXSIXLDEKAQXEFIXYLIEGGPSSGAPPPS; Aib, αMeF(2F), 4Pal, αMeL, D-Glu; εK-lipidated K; amide; (2)..(2) Xaa at position 2 is Aib; (6)..(6) Xaa at position 6 is alpha-methyl-Phe(2F); (10)..(10) Xaa at position 10 is 4Pal; (13)..(13) Xaa at position 13 is alpha-methyl-Leu; MOD_RES (17)..(17) Lys at position 17 is chemically modified by conjugation of the epsilon-amino group of the Lys side chain with (2-[2-(2-Amino-ethoxy)-ethoxy]-acetyl)2-(epsilon-Lys)-CO-(CH2)18- CO2H; (20)..(20) Xaa at pos) [Peptide 207]",3.87
6,"Y-Aib-EGT-αMeF(2F)-TSD-4Pal-SI-αMeL-LDEK((2-[2-(2-Amino-ethoxy)-ethoxy]-acetyl)2-CO—(CH2)16—CO2H)AQ-Aib-EFI-(D-Glu)-YLIEGGPSSGAPPPS-NH2 (YXEGTXTSDXSIXLDEKAQXEFIXYLIEGGPSSGAPPPS; Aib, αMeF(2F), 4Pal, αMeL, D-Glu; lipidated K; amide; (2)..(2) Xaa at position 2 is Aib; (6)..(6) Xaa at position 6 is alpha-methyl-Phe(2F); (10)..(10) Xaa at position 10 is 4Pal; (13)..(13) Xaa at position 13 is alpha-methyl-Leu; MOD_RES (17)..(17) Lys at position 17 is chemically modified by conjugation of the epsilon-amino group of the Lys side chain with (2-[2-(2-amino-ethoxy)-ethoxy]-acetyl)2-CO-(CH2)16-CO2H; (20)..(20) Xaa at position 20 is Aib) [Peptide 205]",3.91
7,"Y-Aib-EGT-αMeF(2F)-TSD-4Pal-SI-αMeL-LDEK((2-[2-(2-Amino-ethoxy)-ethoxy]-acetyl)2CO—(CH2)18—CO2H)AQ-Aib-EFI-(D-Glu)-YLIEGGPSSGAPPPS-NH2 (YXEGTXTSDXSIXLDEKAQXEFIXYLIEGGPSSGAPPPS; Aib, αMeF(2F), 4Pal, αMeL, D-Glu; lipidated K; amide; (2)..(2) Xaa at position 2 is Aib; (6)..(6) Xaa at position 6 is alpha-methyl-Phe(2F); (10)..(10) Xaa at position 10 is 4Pal; (13)..(13) Xaa at position 13 is alpha-methyl-Leu; MOD_RES (17)..(17) Lys at position 17 is chemically modified by conjugation of the epsilon-amino group of the Lys side chain with (2-[2-(2-amino-ethoxy)-ethoxy]-acetyl)2-CO-(CH2)18-CO2H; (20)..(20) Xaa at position 20 is Aib) [Peptide 206]",3.35
